Results taken from patent US9192648.

Biological target: complement C5
Experiment: assay for the IC50 not described; told with the direct binding to C5 (FIG. 4C)

EV576 protein (from UniProt Q5YD59 19-168)
IC50: 20 µg/mL
